Laboratory results as given in PMC2954335.

Target: ecCTLA-4 (Escherichia coli-expressed monomeric form of CTLA-4, extracellular region vl-Ig 1-124, cysteine 122 mutated to serine) (UniProt P16410)
Experiment: SEC; monomeric ecCTLA-4 concentrated to 10 mg/ml, incubated 24 h at room temperature, then analytical size-exclusion chromatography with calibration curve; monomer to strand-swapped dimer and larger species

stoichiometry N: > 2
Substance: ecCTLA-4 (Escherichia coli-expressed monomeric form of CTLA-4, extracellular region vl-Ig 1-124, cysteine 122 mutated to serine) (from UniProt P16410 36-159) (domain or fragment)
